B1: 1E6 (scFv)
scFv: QVQLVQSGAEVKKPGSSVKVSCKASGVTFSSYAISWVRQAPGQGLEWMGGISPIFGTANYAQKFQGRVTITADESTSTAYMELSSLRSEDTAVYYCARGREYYASNGDSFDVWGQGTLVTVSSGGGSGGGSGGGSGGGSQPVLTQPPSVSVAPGKTASISCEGNNIATKSVHWYQQKSGHAPVVVVYHDSDRPSGVPDRFSGSKSGTSASLAISGLRSEDEADYYCAAWDDSLSGPWVFGGGTKLTVL
B2: 1F1 (scFv)
scFv: QVQLVQSGAEVKKPGSSVKVSCKASGGTFSSYAISWVRQAPGQGLEWMGGISAIFGTANYAQKFQGRVTITADESTRTAYMELSSLRSEDTAVYYCARGSGYYVAASGAFDVWGQGTLVTVSSGGGSGGGSGGGSGGGSQPGLTQPPSVSKGLRQTATLTCTGNINNVGDQGAGWLQQHQGRPPKLLSYRNSNRPSGVSERFSASRSGNTASLTITGLQPEDEADYYCSAWDSSLSDWVFGGGTKLTVL
B3: 1F12 (scFv)
scFv: QVQLVQSGAEVKKPGSSVKVSCKASGGIFSSYAISWVRQAPGQGLEWMGGITPIFGTANYAQKFQGRVTITADESTRTAYMELSSLRSEDTAVYYCARDLSRDSLNLPGSSPGYDLWGQGTLVTVSSGGGSGGGSGGGSGGGSETTLTQSPGTLSLSPGERATLSCRASQSVSSNLAWYQQKPGQAPRLLIYGASTRATGIPARFSGSGSGTEFTLTISSLQSEDFAVYYCQQYSSSPYTFGQGTKLEIK
B4: 1F3 (scFv)
scFv: QVQLVQSGAEVKKPGSSVKVSCKASGVIFSSYAISWVRQAPGQGLEWMGGISPIFGTANYAQKFQGRVTITADESTSTAYMELSSLRSEDTAVYYCARSRGYAPGTSFHYDVWGQGTLVTVSSGGGSGGGSGGGSGGGSLPVLTQAPSMSVAPGKTASITCGGDNIGSKSVHWYQQKPGQAPVLVMYYDSDRPSGIPERFSGSNSGNTATLTISRVEAGDEADYFCQLWDHTNSHVVFGGRTKLTVL
B5: 1F5 (scFv)
scFv: QVQLVQSGAEVKKPGSSVKVSCKASGGTFSSYAISWVRQAPGQGLEWMGGISPIFGTANYAQKFQGRVTITSDESTSTAYMELSSLRSEDTAVYYCARDQGGTRGNYFDVWGQGTLVTVSSGGGSGGGSGGGSGGGSQPVLTQPPSVSKGLRQTATVTCTGNSNNVGNQGAAWLQQHQGHPPKLLSYRNNNRPSGISERLSASRSGNTASLTIAGLQPEDEADYYCSAWDNTVSGWVFGGGTRVTVL
B6: 1F6 (scFv)
scFv: QVQLVQSGAEVKKPGSSVKVSCKASGGTFSSYAISWVRQAPGQGLEWMGGIITIFGTANYAQKFQGRVTITADESTNTAYMELSSLRSEDTAVYYCARGGGGRFDVWGQGTLVTVSSGGGSGGGSGGGSGGGSSYELTQPPSVSGTPGQRVTISCSGSTSNIGNNALNWYQKLPGTAPKLLIYSLNQRPSGVPDRFSGSKSGTSASLAISGLQSEDEADYYCEAWDDSLSGPVFGGGTKVTVL
B7: 1H2 (scFv)
scFv: QVQLVQSGAEVKKPGSSVKVSCKASGGPFRSYAISWVRQAPGQGLEWMGGIIPIFGTANYAQKFQGRVTITADESTSTAYMELSSLRSEDTAVYYCARGGVYSFDVWGQGTLVTVSSGGGSGGGSGGGSGGGSQSGLTQPPSASGTPGQRVTISCSGSGSNVGSNVVNWYQHLPGTAPKLLIYRNNQRPSGVPDRFSGSKSGTSASLAISGLQSEDEADYYCAAWDDRLNGFVFGTGTKVTVL
B8: 1H4 (scFv)
scFv: QVQLVQSGAEVKKPGSSVKVSCKASGVPFSSYAISWVRQAPGQGLEWMGGISPLFGTANYAQKFQGRVTITADQSTSTVYMELSSLRSEDTAVYYCARGLGTYSPSLYPRGMDVWGQGTLVTVSSGGGSGGGSGGGSGGGSLPVLTQPPSASGTPGQSVTISCSGSSSNIGRNDVNWYQQFPGRAPKLLIYGRDERPFGVPARFSGSKSGTSASLAISGLQSEDEADYYCAAWDASLMIYVFGTGTTVTVL

target: A/California/04/2009 (H1CA0409) recombinant HA (influenza A virus A/California/04/2009, UniProt P26140 18-529); experiment: phage display panning (immunotube) against trimeric HA

| Binder | binding result |
| --- | --- |
| B1 | binds |
| B2 | binds |
| B3 | binds |
| B4 | binds |
| B5 | binds |
| B6 | binds |
| B7 | binds |
| B8 | binds |

— patent publication US20220135655A1 (Dana-Farber, published 2022)
